Assay results published in PMC6311151 (Biochimica et biophysica acta. Molecular and cell biology …, 2018).

Biological target: the molecule itself
Test: SEC

B1: Gloeobacter ligand-gated ion channel (natural protein)
chain: QDMVSPPPPIADEPLTVNTGIYLIECYSLDDKAETFKVNAFLSLSWKDRRLAFDPVRSGVRVKTYEPEAIWIPEIRFVNVENARDADVVDISVSPDGTVQYLERFSARVLSPLDFRRYPFDSQTLHIYLIVRSVDTRNIVLAVDLEKVGKNDDVFLTGWDIESFTAVVKPANFALEDRLESKLDYQLRISRQYFSYIPNIILPMLFILFISWTAFWSTSYEANVTLVVSTLIAHIAFNILVETNLPKTPYMTYTGAIIFMIYLFYFVAVIEVTVQHYLKVESQPARAASITRASRIAFPVVFLLANIILAFLFFGF
**Q.** How did the “stoichiometry N” value turn out when B1 was run?
**A.** 5
